Test results taken from patent US20180179283A1.

What was measured:
[1] = target: HLA-A2/WT1-S10 peptide on T2 cells (human); assay: FACS, T2 cells loaded with WT1-S10 [..], anti-human PE
[2] = target: HLA-A2/Tyrosinase 369-377 peptide complex on cells (human); assay: FACS, T2 cells loaded with TyrD [..], anti-human PE
[3] = target: HLA-A2/WT1-S16 peptide on T2 cells (human); assay: FACS, T2 cells loaded with WT1-S16 [..], anti-human PE
[4] = target: HLA-A2 positive, antigen negative cells; assay: FACS, A498 cells (printed: non-small cell lung adenocarcinoma, WT1 mRNA -)
[5] = target: HLA-A2/WT1 126-134 peptide complex on cells (human); assay: FACS, T2 cells loaded with WT1 1x10e-4M in DMSO, anti-human PE
[6] = target: HLA-A2/WT1 126-134 peptide complex on cells (human); assay: FACS, T2 cells loaded with WT1 peptide 1x10e-5M, anti-human PE
[7] = target: HLA-A2/WT1-S13 peptide on T2 cells (human); assay: FACS, T2 cells loaded with WT1-S13 [..], anti-human PE
[8] = target: HLA-A2/WT1 126-134 peptide complex on cells (human); assay: FACS, T2 cells loaded with 10^-4M WT1 peptide
[9] = target: HLA-A2/WT1-S22 peptide on T2 cells (human); assay: FACS, T2 cells loaded with WT1-S22 [..], anti-human PE
[10] = target: HLA-A2/WT1-S11 peptide on T2 cells (human); assay: FACS, T2 cells loaded with WT1-S11 [..] (heteroclitic pep.), anti-human PE
[11] = target: HLA-A2 positive, antigen negative cells; assay: FACS, SKMEL-5 cells (melanoma, WT1 mRNA -)
[12] = target: HLA-A2 positive, antigen negative cells; assay: FACS, 501A cells (melanoma, WT1 mRNA -)
[13] = target: HLA-A2 positive, antigen negative cells; assay: FACS, U266 cells (multiple myeloma, WT1 mRNA -)
[14] = target: HLA-A2/WT1 126-134 peptide complex on cells (human); assay: FACS, SET-2 cells (essential thrombocythemia, WT1 mRNA +)
Unloaded T2 (human) = assay: FACS, unloaded T2 cells, anti-human PE
[15] = target: HLA-A2/WT1-S7 peptide on T2 cells (human); assay: FACS, T2 cells loaded with WT1-S7 [..], anti-human PE
[16] = target: HLA-A2 positive, antigen negative cells; assay: FACS, JVM-2 cells (lymphoblast, WT1 mRNA -)
[17] = target: HLA-A2/MAGE-A9 223-231 peptide complex on cells (human); assay: FACS, T2 cells loaded with MAGE-A9 [..], anti-human PE
[18] = target: HLA-A2 positive, antigen negative cells; assay: FACS, IM-9 cells (multiple myeloma, WT1 mRNA -)
[19] = target: HLA-A2/PAP 112-120 peptide complex on cells (human); assay: FACS, T2 cells loaded with PAP112, anti-human PE
[20] = target: HLA-A2/WT1 126-134 peptide complex on cells (human); assay: FACS, BV173 cells (B cell precursor leukemia, WT1 mRNA +)
[21] = target: HLA-A2/WT1 126-134 peptide complex on cells (human); assay: FACS, T2 cells loaded with WT1 peptide 1x10e-4M, anti-human PE
[22] = target: HLA-A2/MAGE-A4 230-239 peptide complex on cells (human); assay: FACS, T2 cells loaded with MAGE-A4 [..], anti-human PE
[23] = target: HLA-A2/WT1-S6 peptide on T2 cells (human); assay: FACS, T2 cells loaded with WT1-S6 [..], anti-human PE

Substance: ESK1 TCR-like antibody
- MFI [1]: 1.4
- MFI [2]: 1
- MFI [3]: 1.1
- MFI [4]: 5.2
- MFI [5]: 17.9
- MFI [6]: 1.6
- MFI [7]: 1.1
- MFI [8]: 18
- MFI [9]: 1.1
- MFI [10]: 1.1
- MFI [11]: 4.3
- MFI [12]: 10.7
- MFI [13]: 1.9
- MFI [14]: 26.3
- MFI (Unloaded T2 (human)): 1
- MFI [15]: 3.1
- MFI [16]: 1
- MFI [17]: 1
- MFI [18]: 1.2
- MFI [19]: 1.1
- MFI [20]: 8.1
- MFI [21]: 17.9
- MFI [22]: 1.1
- MFI [23]: 5
